Test results taken from patent US20180194853A1 (published 2018).

What was measured:
recombinant human IL-2Rβ = molecular target: T1, recombinant human IL-2Rβ (human, UniProt P14784 27-240); test: SPR, receptor chain immobilised on the chip, antibody flowed over
T1 construct: Recombinant chain immobilised on the SPR chip and used as ELISA antigen; also called CD122; interleukin 2 receptor β
T1 sequence (looked up): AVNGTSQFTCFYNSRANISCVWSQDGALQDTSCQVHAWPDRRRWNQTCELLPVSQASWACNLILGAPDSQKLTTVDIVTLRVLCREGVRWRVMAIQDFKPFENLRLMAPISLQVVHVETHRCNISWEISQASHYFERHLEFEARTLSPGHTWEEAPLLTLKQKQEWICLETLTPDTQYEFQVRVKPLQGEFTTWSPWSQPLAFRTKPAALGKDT
Description: (§1) Association/dissociation of the anti-IL-2Rβ/γc bispecific antibody to/from the receptor chains was measured in Surface Plasmon Resonance using recombinant IL-2Rβ or γc chains immobilised on a chip, and flowing various concentrations of the antibody over the surface.

recombinant human γc = molecular target: T2, recombinant human γc (human, UniProt P31785 23-262); test: as above
T2 construct: Recombinant chain immobilised on the SPR chip and used as ELISA antigen; also called common γ chain; CD132
T2 sequence (looked up): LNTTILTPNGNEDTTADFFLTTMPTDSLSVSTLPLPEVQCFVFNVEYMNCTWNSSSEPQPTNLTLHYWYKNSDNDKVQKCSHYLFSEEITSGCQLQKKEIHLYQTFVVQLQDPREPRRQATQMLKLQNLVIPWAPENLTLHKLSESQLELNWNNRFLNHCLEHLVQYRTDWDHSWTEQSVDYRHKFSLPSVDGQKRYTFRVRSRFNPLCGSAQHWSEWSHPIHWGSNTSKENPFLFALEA
Description: as §1

B1: bispecific anti-IL-2Rβ/γc antibody P2H7/P2B9 (bispecific antibody)
chain 1: not shown
chain 2: QVQLQESGPGLVKPSETLSLTCTVSGGSISSSSYYWGWIRQPPGKGLEWIGSIYYSGSTYYNPSLKSRVTISVDTSKNQFSLKLSSVTAADTAVYYCAGDILTGYALDYWGQGTLVTVSSGGGGSGGGGSGGGGSSYELTQPPSMSVSPGQTARITCSGDALPKQFAFWYQQKPGQAPVLVIYKDTERPSGIPERFSGSSSGTTVTLTITGVQAEDEADYYCQSPDSSGTVEVFGGGTKLTVLNSGAGTAAATHTCPPCPAPEAAGGPSVFLFPPKPKDTLMISRTPEVTCVVVDVSHEDPEVKFNWYVDGVEVHNAKTKPREEQYNSTYRVVSVLTVLHQDWLNGKEYKCKVSNKALPAPIEKTISKAKGQPREPQVCTLPPSRDELTKNQVSLSCAVKGFYPSDIAVEWESNGQPENNYKTTPPVLDSDGSFFLVSKLTVDKSRWQQGNVFSCSVMHEALHNHYTQKSLSLSPGK
Recombinant human IL-2Rβ
  Kd: 101 nM
Recombinant human γc
  Kd: 79.8 nM
